Assays:
[1] = tested on: fluorescent tripeptidyl substrate PRR, MeOC-GGG-PRR-GG-DPA-KK-NH2
[2] = tested on: recombinant pro-stem bromelain
[3] = molecular target: albumin in human plasma / human serum (UniProt P02768)
[4] = tested on: recombinant pro-fruit bromelain
[5] = tested on: T1, FVR-7-amino-4-methylcoumarin
T1 sequence: FVR

Sequence of UniProt P02768 (P02768 whole entry, looked up): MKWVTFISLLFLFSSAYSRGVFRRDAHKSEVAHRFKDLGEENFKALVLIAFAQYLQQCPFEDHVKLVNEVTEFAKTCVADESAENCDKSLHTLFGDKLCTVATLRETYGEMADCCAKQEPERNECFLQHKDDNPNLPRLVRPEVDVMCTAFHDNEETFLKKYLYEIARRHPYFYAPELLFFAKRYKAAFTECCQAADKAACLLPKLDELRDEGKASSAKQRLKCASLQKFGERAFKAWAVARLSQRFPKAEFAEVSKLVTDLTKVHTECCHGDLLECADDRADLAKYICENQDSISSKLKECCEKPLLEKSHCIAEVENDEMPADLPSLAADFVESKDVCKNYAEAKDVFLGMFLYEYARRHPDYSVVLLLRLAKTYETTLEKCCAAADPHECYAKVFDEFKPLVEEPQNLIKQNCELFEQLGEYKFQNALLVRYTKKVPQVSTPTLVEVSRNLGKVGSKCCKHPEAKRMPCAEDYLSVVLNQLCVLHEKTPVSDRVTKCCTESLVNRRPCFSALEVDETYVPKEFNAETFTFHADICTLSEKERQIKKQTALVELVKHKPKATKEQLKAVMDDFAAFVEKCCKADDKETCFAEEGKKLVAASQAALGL

Substance: activated stem bromelain
- initial rate of proteolysis of PRR (fluorescence) [1]: about 0.024 µg PRR molecules per min

Substance: active ananain (recombinant, obtained by activation of pro-ananain)
- cleavage of pro-SB by active ananain, SDS-PAGE time course [2]: mixing active ananain and pro-SB at a weight ratio of 1:25 led to a complete cleavage of pro-SB within 10 min, resulting in two fragments of 24 and 12 kDa
- cleavage of pro-SB on an ananain-immobilized column, SDS-PAGE [2]: The collected activated SB was subject to SDS-PAGE analysis and was confirmed to be fully activated
- proteolysis of human plasma/serum proteins, SDS-PAGE [3]: The clear reduction of albumin in sample A, C and D in the presence of ananain indicates that albumin is a protein substrate for ananain
- cleavage of pro-FB on an ananain-immobilized column, SDS-PAGE [4]: The collected activated FB was subject to SDS-PAGE analysis and was confirmed to be fully activated

Substance: recombinant pro-fruit bromelain
- proteolysis of FVR-AMC (fluorescence) [5]: pro-FB did not cleave FVR-AMC at all

Substance: recombinant pro-stem bromelain
- initial rate of proteolysis of PRR (fluorescence) [1]: the cleavage of PRR by 100 nM Pro-SB was negligible

Source: patent US20230263867
